Source: the supplement of paper PMC9170038

Key:
MS2 coat protein [1] = test: apparent KD of MS2 coat protein; designed switch direction (-1 OFF switch, 1 ON switch): -1; higher = weaker reporter binding; settings: Eterna round: R98
Protocol: (§1)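 RNA-MaP: designed FMN/MS2 RNA switches (84 nt design region) are transcribed on-chip within common flanks and titrated with SNAP-549-labelled MS2 coat protein (about 1-3000 nM) in 100 mM Tris pH 7.5, 80 mM KCl, 4 mM MgCl2, without or with 200 uM FMN. Median apparent KD per design; activation ratio = KD,OFF / KD,ON.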

MS2 coat protein [2] = test: apparent KD of MS2 coat protein; designed switch direction (-1 OFF switch, 1 ON switch): 1; higher = weaker reporter binding; settings: Eterna round: R98
Protocol: as §1

Row | Sequence | apparent KD of MS2 coat protein (MS2 coat protein [1]; input ligand: FMN 200 uM) | apparent KD of MS2 coat protein (MS2 coat protein [1]; input ligand: none) | apparent KD of MS2 coat protein (MS2 coat protein [2]; input ligand: FMN 200 uM) | apparent KD of MS2 coat protein (MS2 coat protein [2]; input ligand: none)
1 | AACCUGACAUAAUAAUGUAGAAAUACAUGAGGAUCACCCAUGUAGGAUAUGCAGUGGAAUACACUGCAGAAGGACAUAGUCAGG [Exclusion NG 3/8-B1] | 21.9 nM | 14.8 nM |  | 
2 | AAGUUUUUACAAGGAUAUCAGUUGUUUAUAAAUUAAACAUGAGGAUCACCCAUGUAACAAAGGAGUGAGAAGGUGUGUUGGAAA [JR_SSNG2_Sub089] |  |  | 319 nM | 408 nM
3 | ACAUAAUGGUGAGGAUAUGCACAGGAUCACCGUGUAGAAGGCAUCAGGUAGAAGGUGCAGAGGAUCACCCUGUAAGGAUAUAUC [pwkr2 ssNG1 DX.19] |  |  | 94.6 nM | 562 nM
4 | ACAUGGAAGCGAGGAUAUGCGGCGGAUUUAAACGCAGAAGGCGUUUAUUUAACUCGCAAUAACAUGAGGAUCACCCAUGUAUAA [AK-NGROCr2-ExNG1-5.1] | 59.4 nM | 55.9 nM |  | 
5 | CACGUCCUCACAGGAUAUGCUGGACUUUGUCCAGCAGAAGGGUGAACAUGAGGAUCACCCAUGUAAAGGACGUGUAUAUUUAAU [Denovo 23] |  |  | 72.5 nM | 587 nM
6 | CAUGUCCUCACAGGAUAUGCUGGACUUUGUCCAGCAGAAGGGUGAACAUGAGGAUCACCCAUGUAAUGGACAUGUAUAUUUAAG [Mat - Same State NG 1 - Eli mod - D98] |  |  | 49.4 nM | 902 nM
7 | CCUGACACUUGAGGAUAUGCUCAGGAAUACUGAGCAGAAGGCAGGAAAACCUGAGGAUCACCCAGGUAAGUCAGGAAUAAUAAA [Same State NG1 - A3C, U17G Submission 3A] |  |  | 17.2 nM | 20.7 nM
8 | CUGCAAUUCUUAGGAUAUGCUCAGGAAUACUGAGCAGAAGGAAGAUAUACCUGAGGAUCACCCAGGUUAAACUGGAGCAGAAUA [Same State NG1 - A3C, U17G Submission 8A] |  |  | 32.2 nM | 181 nM
9 | CUGGUGAUGUAAGGAUAUGCUGAGGAUAACUCAGCAGAAGGUACAUGAGGAUCACCCAUGUAAAUGAAAGAUAAUAAACACCAG [Excusion NG 1/16-B2] | 30.9 nM | 15.9 nM |  | 
10 | GAGCUGCUCUGAGGAUAUGGGUUUAUAAGGACGGGCACGCCCGACAUGAGGAUCACCCAUGUCUACCAGAAGGCAGAAAAGUUC [Mamain] |  |  | 394 nM | 171 nM
11 | GAUACAUAGCAAGGAUAUCCACAUGAGGAUCACCCAUGUGCGUAAUCUGGGCGGUGGAAGAAAGUGGAGAAGGUGUUAGGUUGA [Atia] | 106 nM | 64.2 nM |  | 
12 | GCAGAAGGUGCGGAGGAUCACCCUGUAAGGAUAUGCAUUAGCAAGGAUAUACAGAGGAUCACCCUGUAGAAGGUGCACUACUCU [pwkr2 ssNG3 DX.1] |  |  | 1140 nM | 1430 nM
13 | GCAGAAGGUGCGGAGGAUCACCCUGUAAGGAUAUGCAUUAGCAAGGAUAUACAGAGGAUCACCCUGUAGAAGGUGCACUUCUGC [pwkr2 ssNG3 DX.9] |  |  | 1310 nM | 897 nM
14 | GCGUCCCGCAGAGGAUAUGUUGUUCGGCCUACAUGAGGAUCACCCAUGUCAAAGGGCUGAUCCCAACAGAAGGCUGAAGGAUAC [Qumarera] |  |  | 8.73 nM | 64 nM
15 | GCUCUCACUUGAGGAUAUCGAGUGGAUAACACUCGAGAAGGCAGGGAAACCUGAGGAUCACCCAGGUAACUGGAAAGAGAGCAA [Same State NG1 - A3C, U17G Submission 5D] |  |  | 20.4 nM | 31.8 nM
16 | GCUUGCGACGCAGGAUAUGGGUGCCUGCACACGAGGAUCACCCGUGUAGAGGAACGGAUUACGUCUCAGAAGGGCGUGGCAGGC [United States 4 - Jieux - Same State NG 2] |  |  | 21.8 nM | 88.9 nM
17 | GGAGACCUCACAGGAUAUGCUGGACUUUGUCCAGCAGAAGGGUGACUAACAUGAGGAUCACCCAUGUAGGUCUCCAAAUUUAAU [Denovo 58] |  |  | 631 nM | 40.8 nM
18 | GGAGCACACAUUAACAUGAGGAUCACCCAUGUCAAAAGACAUGAGGAUAUGGAUCCGAAAAGGAUCCAGAAGGCAUGGUGCUCC [EliMod 8 - Jieux - Same State NG 3] |  |  | 35.1 nM | 598 nM
19 | GGAUAACAUGUAGGAUAUCCAGCAUUGACCAUCGGAGAAGGACAUGAGGAUCACCCAUGUACCGAUACAAUGGAAUAAGGGAAU [xclu_NG1_cac3] | 17.9 nM | 15.4 nM |  | 
20 | GGUUGUUACGCAGGAUAUUGCCAACAGGCAGUGGGAUAUCCGAAAGGAGAAGGUUCGCCAACAGGCGAGAAGGGCGGGUUAACC [pwkr exNG2 2xF7 2FMN.10.7] | 94 nM | 400 nM |  | 
21 | UAAUAAUAAUAAUACGUCAAUUACAUGAGGAUCACCCAUGUAUAGGAUAUGCAGUGGAAUACACUGCAGAAGGAUACAAAGACG [Exclusion NG 3/3-B1] | 22.8 nM | 19.6 nM |  | 
22 | UGUAAAAUUGAUCCUGCAAGUACAUGAGGAUCACCCAUGUGCUAGGAUAUCGCUCAGCUAAAGACCGAGAAGGAGCACAAUGUA [Adiraat] | 67.1 nM | 27.9 nM |  | 
23 | UUAUGAGCGAUAGGAUAUACUGAGAUUGAAUGGGUAGAAGGAUCAAUCGUGUGGAAGACAUGAGGAUCACCCAUGUUACGGGCC [SameState #75 NG1] |  |  | 510 nM | 221 nM
24 | UUGGUUCUCGUAGGAUAUGUAGGAUAUGCCUACAUGAGGAUCACCCAUGUUCGCAUGGCAGAAGGACAGAAGGACGAUCACCAU [pwkr ssNG2 2FMN +1F5.17] |  |  | 20.8 nM | 288 nM
